Assay: yeast display, Sf9 membrane polyspecificity reagent, FACS + sequencing; frameworks hold sequencing errors
In short: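 Nanobodies from a synthetic yeast display library (Saccharomyces cerevisiae BJ5465), induced 36–48 hours with galactose, were stained 1 hour at 4 °C with 10% biotinylated, detergent-solubilized Sf9 membrane reagent, enriched on streptavidin microbeads, then FACS-sorted. Anti-HA (expression) and streptavidin (reagent binding) fluorescence set low and high (top ~1%) gates. Polyreactivity labels come from the gate of origin. Genes were colony-PCR amplified, MiSeq 2 × 250 sequenced and filtered by CDR length.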
For “QVQLVESGGGLVQAGGSLRLSCAASGFTLGFYAMGWYIQAPGKERELVAAINWRGGSTYYADSVKGRFTISRDNAKNTVYLQMNSLKPEDTAVYYCNAGFNTGGYGYWGQGTQVTVSS”, the “polyreactivity (PSR sort gate)” value was “high polyreactivity”.
In the case of “QVQLVESGGGLVQAGGSLRLSCAASGFTLGHYAMGWYRQAPGKERELVAVITSGSSTNYADSVKGRFTISRDNAKNTVYLQMNSLKPDDTAVYYCAAEDPYFKWLYYYWGQGTQVTVSS”, the “polyreactivity (PSR sort gate)” value is reported as “low polyreactivity”.
With “QVQLVESGGGLVQAGGSLRLSCAASGFTLGSNVMGWYRQAPGKERELVAGISQSGGRTFYADSVKGRFTISRDNAKNTVYLQMNSLKPEDTAVYYCAARRYAVEGSKNYYWGQGTQVTVSS” the “polyreactivity (PSR sort gate)” value was “low polyreactivity”.
With “QVQLVESGGGLVQAGGSLRLSCAASGFTLGSNVMGWYRQAPGKERELVAGISQSGGRTFYADSVKGRFTISRDNAKNTVYLQMNSLKPEDTAVYYCNKGASPDDYDYWGQGTQVTVSS” the “polyreactivity (PSR sort gate)” value was “low polyreactivity”.
For “QVQLVESGGGLVQAGGSLRLSCAASGFTLGYYTMGWYRQAPGKERELVAAIRSNGGSTYYADSVKGRFTISRDNAKNTVYLQMNSLKPEDTAVYYCAARRWRYVGTRYDYWGQGTQVTVSS”, the “polyreactivity (PSR sort gate)” value was “high polyreactivity”.
For “QVQLVESGGGLVQAGGSLRLSCAASGFTLIHYAMGWYRQAPGKERELVAGITTSGGSTYYADSVKGRFTISRDNAKNTVYLQMNSLKPEDTAVYYCAASSNTRGDYWGQGTQVTVSS”, the “polyreactivity (PSR sort gate)” value was “high polyreactivity”.
For “QVQLVESGGGLVQAGGSLRLSCAASGFTLISYDMGWYRPSPGKERELVAGISSGDSTDYADSVKGRFTISRDNAKNTVYLQMNSLKPEDTAVYYCAATWYGYYSRYDFYYWGQGTQVTVSS”, the “polyreactivity (PSR sort gate)” value was “low polyreactivity”.
In the case of “QVQLVESGGGLVQAGGSLRLSCAASGFTLKSYAMGWYRQAPGKERELVASISRRGGSTYYADSVKGRFTISRDNAKNTVYLQMNSLKPEDTAVYYCNADYVRFPGNAYDYWGQGTQVTVSS”, the “polyreactivity (PSR sort gate)” value is reported as “high polyreactivity”.
For “QVQLVESGGGLVQAGGSLRLSCAASGFTLKYYAMGWYRQAPGKERELVAAITSSGGSTYYADSVKGRFTISRDNAKNTVYLQMNSLKPEDTAVYYCNAVTVYKHGSWGQGTQVTVSS”, the “polyreactivity (PSR sort gate)” value was “high polyreactivity”.
In the case of “QVQLVESGGGLVQAGGSLRLSCAASGFTLLKNAMRGYRQAPGKERELVAAIRVSGGSTYYADSVKGRFTISRDNAKNSVYLQMNSLKPEDTAVYYCAAKYLRWPVSTMYYWGQGTQVTVSS”, the “polyreactivity (PSR sort gate)” value is reported as “high polyreactivity”.
For “QVQLVESGGGLVQAGGSLRLSCAASGFTLQQYTMGWYRQAPGKERELVAAISTSGVRTYYADSVKGRFTISRDNAKNTVYLQMNSLKPEDTAVYYCNAAWVYGIGWYSGYDYWGQGTQVTVSS”, the “polyreactivity (PSR sort gate)” value was “high polyreactivity”.
For “QVQLVESGGGLVQAGGSLRLSCAASGFTLRLYVMGWYRQAPGKERELVAAITSSGGSTYYADSVKGRFTISRDIAKNTVYLQMNSLKPEDTAVYYCAAVNRKSQLYGYWGQGTQVTVSS”, the “polyreactivity (PSR sort gate)” value was “high polyreactivity”.
For “QVQLVESGGGLVQAGGSLRLSCAASGFTLRRYAMGWYRLAPGKERELVATITSGGTTDYADSVKGRFTISRDNAKNTVYLQMNSLKPEDTAVYYCAAYRRGAYYYWGQGTQVTVSS”, the “polyreactivity (PSR sort gate)” value was “high polyreactivity”.
With “QVQLVESGGGLVQAGGSLRLSCAASGFTLSKYAKGWYRPAPGKERELVAAITGSGVRTYYADSVKGRFTISRDYAKNSVYLELNSLKPEDTAVYYCATGTKKGRYRDELDCWGHGTQVTVSS” the “polyreactivity (PSR sort gate)” value was “high polyreactivity”.
In the case of “QVQLVESGGGLVQAGGSLRLSCAASGFTLSNNAMGWYRQAPGKERELVAGLTSGGDSTNYADSVKGRFTISRDNAKNTVYLQMNSLKREDTAVYDCAAQGGTNTPGVVESDYWGQGTQVTVSS”, the “polyreactivity (PSR sort gate)” value is reported as “low polyreactivity”.
In the case of “QVQLVESGGGLVQAGGSLRLSCAASGFTLSRNAMGWYRQAPGKERELVAAISYSGARTYYADSVKGRFTISRDNAKNTVYLQMNRLKPEDTAVYYCAKVVPYPDYDYWGQGTQVTVSS”, the “polyreactivity (PSR sort gate)” value is reported as “high polyreactivity”.
With “QVQLVESGGGLVQAGGSLRLSCAASGFTLSYNVMGWYRQAPGKERELVAAISDSGGSTYYADSVKGRFTISRDNAKNTVYLQMNSLKPEDTAVYYCAAYYPTRYQYGTIWVAYNYWGQGTQVTVSS” the “polyreactivity (PSR sort gate)” value was “low polyreactivity”.
With “QVQLVESGGGLVQAGGSLRLSCAASGFTLTRKAMGWYRQAPGKERELVAAISRSGGSTYYADSVKGRFTISRDNAKNTVYLQMNSLKPEDTAVYYCNAGYGYGYPKYDYWGQGTQVTVSS” the “polyreactivity (PSR sort gate)” value was “high polyreactivity”.
With “QVQLVESGGGLVQAGGSLRLSCAASGFTLVNNAMGWYRQAPGKERELVAAISKRAGRTYYADSVKGRFTISRDNAKNTVYLQMNSLKPEDTAVYYCNAGKRVEYDYWGQGTQVTVSS” the “polyreactivity (PSR sort gate)” value was “high polyreactivity”.
For “QVQLVESGGGLVQAGGSLRLSCAASGFTLWLNAMGWYRQAPGKERELVAAITTSDDGTYYADSVKGRFTISRDTAKNTVYLQMNSLKPEDTAVYYCAADYYSVLYDYWGQGTQVTVSS”, the “polyreactivity (PSR sort gate)” value was “low polyreactivity”.
With “QVQLVESGGGLVQAGGSLRLSCAASGFTLYVNAMGWYRHAPGKERELVAAISRGTTTYYADSVKGRFTISRDNAKNTVYLQMNSLKPEDTAVYYCAGETGHPYEEYDYWGQGTQVTVSS” the “polyreactivity (PSR sort gate)” value was “high polyreactivity”.
In the case of “QVQLVESGGGLVQAGGSLRLSCAASGFTLYYNAMGWYRQAPGKERELVAAINIGDSTNYADSVKGRFTISRDNAKNTVYLQMNSLKPEDTAVYYCAAVLLPYGVFYTVAINVDYWGQGTQVTVSS”, the “polyreactivity (PSR sort gate)” value is reported as “low polyreactivity”.
With “QVQLVESGGGLVQAGGSLRLSCAASGFTLYYYAMGGYRQAPGKERELVAAISYSGGTTYYADSVKGRFTISRDNAKNTVYLLMYSLKPEDTAVYYCAAGFYSYSWYVKLAYGYWGQGIQVTVSS” the “polyreactivity (PSR sort gate)” value was “low polyreactivity”.
With “QVQLVESGGGLVQAGGSLRLSCAASGFTLYYYTMGWYRQAPGKERELVAAITSGGDTYYADSVKGRFTISRDNAKNTVYLQMNSLKPEDTAVYYCAAVDDDYSIVWYDYWGQGTQVTVSS” the “polyreactivity (PSR sort gate)” value was “low polyreactivity”.
With “QVQLVESGGGLVQAGGSLRLSCAASGFTQEDYTMGWYRQAPGQERELVARITSGGSTNYADSVKGRFTISRDNGKNTDYLQMNSLKADETAVYYCNARYAWINMDYWGQGTQVTVSS” the “polyreactivity (PSR sort gate)” value was “low polyreactivity”.
In the case of “QVQLVESGGGLVQAGGSLRLSCAASGFTSAPYAMGWNRQAPGKERELVAAISSGDTTSYADSVKGRFTISRDNEKNTVYFQMNSLKPEDTAVYYCAAVYFNVIESYKTAGYDYWGQGTQVTVSS”, the “polyreactivity (PSR sort gate)” value is reported as “low polyreactivity”.
In the case of “QVQLVESGGGLVQAGGSLRLSCAASGFTSGNYAMGWYRQAPGKERELVAAIDSDGSTYYADSVKGRFTISRDNAKNTVYLQMKSLKPEDTAVYYCNKDIKSATDSYHYEDDYWGQGTQVTVSS”, the “polyreactivity (PSR sort gate)” value is reported as “low polyreactivity”.
With “QVQLVESGGGLVQAGGSLRLSCAASGFTSPIYAMGWYRQAPGKERELVAVIDWSSGITYYADSVKGRFTISRDNAKNTVYLQMNSLKPEDTAVYYCAAEYRGRGWRYGYDYWGQGTQVTVSS” the “polyreactivity (PSR sort gate)” value was “high polyreactivity”.
With “QVQLVESGGGLVQAGGSLRLSCAASGFTSRNYAMGWYSQARGKARELVAVFSKSGTSTYYADSVKGRFTISRDHAKNTVYLQMTSLKPEDTAVYYCSADTGHLSNSMDYWGQGTQVTVSS” the “polyreactivity (PSR sort gate)” value was “high polyreactivity”.
In the case of “QVQLVESGGGLVQAGGSLRLSCAASGFTSWDNDMGWYRQAPGKERELVAAMSRGGSTNYADSVKGRFTISRDNAKNTVYLQMNSLKPEDTAVYYCAAGSYAGFAVIGYYYWGQGTQVTVSS”, the “polyreactivity (PSR sort gate)” value is reported as “low polyreactivity”.
With “QVQLVESGGGLVQAGGSLRLSCAASGFTTSQYAMGWYRQAPGKERDLVAAITSSGSSTYYADSVKGRFTISRDNAKNTVYLQMNSLKPEDTAVYYFNTDAYHRYPGSVWYYYWGQGTQVTVSS” the “polyreactivity (PSR sort gate)” value was “high polyreactivity”.
With “QVQLVESGGGLVQAGGSLRLSCAASGFTVGLYAMGWYRQAPGKERELVAAISGGGSTNYADSVKGRFTISRDNAKNTVYLQMNSLKPEDTAVYYCNKAYHNVYYNWYLRYYSYDYWGQGTQVTGSS” the “polyreactivity (PSR sort gate)” value was “low polyreactivity”.
With “QVQLVESGGGLVQAGGSLRLSCAASGFTVGSNAMGWYRQAPGKERELVAAISRSSGRTYYADSVKGRFTISRDNAKNTVDLQMNSLKPEDTAVYYCAAQTRYRISLQYYYWGQGTQVTVSS” the “polyreactivity (PSR sort gate)” value was “high polyreactivity”.
With “QVQLVESGGGLVQAGGSLRLSCAASGFTVGYAMGWYRQAPGKEREFVAAITRGGGTRTSYADSVKGRFTISRDNAKNTVYLQMNSLKPEDTAVSYCAARRWWSPRTQYDYWGQGTQVTVSS” the “polyreactivity (PSR sort gate)” value was “high polyreactivity”.
With “QVQLVESGGGLVQAGGSLRLSCAASGFTVPGYAMGWYRQAPGNERELVAAINSSGGRTYYADSVKGRFTISRDTAKITVYFQMTSLKPEDTAVYYCAATRWYIRARYNYWGQGTQVTVSS” the “polyreactivity (PSR sort gate)” value was “high polyreactivity”.
With “QVQLVESGGGLVQAGGSLRLSCAASGFTYIDYAMGWYRQAPGKERELVAAITSRGGTTYYADSVKGRFTISRDNAKNTVYLLMNSLKPEDTAVYYCNAGSSFWVSRIGYDYWGQGTQVTVSS” the “polyreactivity (PSR sort gate)” value was “high polyreactivity”.
For “QVQLVESGGGLVQAGGSLRLSCAASGFTYIRYAMGWSRKATGKERQLVAAIRGTGTSTYFADSVKGRFTISRDNGKNTVYLQMNSLKPEETAVYYCNNVSGRSPYTRYDYWGQGTQVTVSS”, the “polyreactivity (PSR sort gate)” value was “low polyreactivity”.
In the case of “QVQLVESGGGLVQAGGSLRLSCAASGFTYNRYAMGWYRQAPGKERELVAGISWGGGSTYYADSVKGRFTISRDNAKNTVYLQMNSLKPEDTAVYYCAAGWQHYRRYGSYDYWGQGTQVTVSS”, the “polyreactivity (PSR sort gate)” value is reported as “high polyreactivity”.
In the case of “QVQLVESGGGLVQAGGSLRLSCAASGFTYPGYAMGWYRQAPRKERELVASITDNGANTYYADSVKGRFTISRDNAKNTVYLQMNSLKPEDTAVYYCAADPGRVTRVGVRYYYWGQGTQVTVSS”, the “polyreactivity (PSR sort gate)” value is reported as “high polyreactivity”.
In the case of “QVQLVESGGGLVQAGGSLRLSCAASGFTYRKYALGWYRQAPGKERELVAVINIVGSTYYADSVKGRFTISRDNAKNTVYLQMYSLTPEDTAVYYCAADWSYRLKYYWYGGFKYWGQGTQVTVSS”, the “polyreactivity (PSR sort gate)” value is reported as “high polyreactivity”.
In the case of “QVQLVESGGGLVQAGGSLRLSCAASGFTYSRYAMGWYRQAPGKERELVAAIRLRDGITYYADSVKGRITISRDNAKNTVYLQMNRLKPEDTAVYYCNAVNRTPVSQLDYWGQGTQVTVSS”, the “polyreactivity (PSR sort gate)” value is reported as “high polyreactivity”.
In the case of “QVQLVESGGGLVQAGGSLRLSCAASGFTYYAMGWYRQAPGKERELVAAITRGGSTYYADSVKGRFTISRDNAKNTVYLQMNSLKPEDTAVYYCAVLQRAARLGYNYWGQGTQVTVSS”, the “polyreactivity (PSR sort gate)” value is reported as “high polyreactivity”.
With “QVQLVESGGGLVQAGGSLRLSCAASGFTYYIYAMGWYRQAPGKERELVAAISRSAGITNYADSVKGRFTISRDNAKNTVYLQMNSLKAEDTAVYYCAAEVGYWGYQISGDYWGQGTQVTVSS” the “polyreactivity (PSR sort gate)” value was “low polyreactivity”.
